# Results published in PMC8948829, “The Escherichia coli Amino Acid Uptake Protein CycA: Regulation of Its Synthesis and Practical Application in l-Isoleucine Production”.
# B1: PcycA fragment 2 (73 bp) (dsDNA)
# DNA 1: CAAAGACCCCGTAAGCGTGTATTTTTGTGAGCTGTTTCGCGTTATCACCGTGATATGACACTCACTTTAAACA
# DNA 2: TGTTTAAAGTGAGTGTCATATCACGGTGATAACGCGAAACAGCTCACAAAAATACACGCTTACGGGGTCTTTG
# Target: Crp (CRP, cAMP receptor protein) (Escherichia coli (purified from strain …, UniProt P0ACJ8 1-210))
# Assay: EMSA; 20 uM cAMP; 12 ng Crp, 50 ng probe; 10 mM Tris-HCl pH 7.5, 1 mM EDTA, 100 mM KCl, 1 mM DTT, BSA (printed 10 g/mL), 5% glycerol, 20 uM cAMP, room temperature 30 min; 6% native PAGE, 1x TAE, 4 C
# Conditions: protein: recombinant; tags: none (native His residues used for Ni-NTA); chain copies: 2; label: 5'-TAMRA on strand 2 (primer P11); blunt
# Sequence of Crp (CRP, cAMP receptor protein) (Escherichia coli (P0ACJ8 whole entry): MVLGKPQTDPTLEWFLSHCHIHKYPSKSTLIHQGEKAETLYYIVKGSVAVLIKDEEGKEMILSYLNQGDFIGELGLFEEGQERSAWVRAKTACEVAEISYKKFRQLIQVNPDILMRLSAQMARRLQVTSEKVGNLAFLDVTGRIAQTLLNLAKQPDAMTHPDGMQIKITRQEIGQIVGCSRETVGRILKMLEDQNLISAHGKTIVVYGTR
binder,measurement,value
B1,binding result,binds
